Data taken from article PMC4550891.

Target: Glu286 (UniProt position 286, FFGHPEVYIIV)
Assay: kinetics

Substance	pKa (~22 °C, not stated (100 mM buffer), 100 mM buffer after 1:5 mixing: MES (pH 6, 6.5), HEPES (pH 7-8), BIS-TRIS propane (pH 7-9), CHES (pH 9, 9.5), CAPS (pH 10-11). Also 0.1 mM EDTA., Fully (four-electron) reduced CytcO reacting with 1 mM O2, P3 intermediate, detergent-solubilised, no membrane potential)	pKa (Reduced wild-type CytcO reacting with O2, P3->F3 transition, cited from earlier work)
Cytochrome c oxidase (aa3-type) Ser425Ala variant (subunit I) (Rhodobacter sphaeroides; S425A)	>10.5	–
Cytochrome c oxidase (aa3-type), subunit I carries the titrating residue (Rhodobacter sphaeroides)	–	9.4
